Measured values published in patent publication US8329653 (BUCK INSTITUTE FOR AGE RESEARCH, dated 2012).

Tests used:
[1] = target: T1, endogenous mouse netrin-1 (E16.5 embryonic cortex) (mouse, UniProt O09118 25-604); experiment: co-immunoprecipitation of endogenous proteins from E16.5 mouse cortex
T1 construct: also called mNet1

[2] = target: T2, endogenous mouse APP (embryonic cortex) (mouse, UniProt P12023 18-770); experiment: as above
T2 construct: whole, on cells; also called endogenous APP

[3] = target: T3, Human Net 1-FlagM2 (Apotech), recombinant netrin-1 (human, UniProt O95631 25-604); experiment: ELISA, Aβ1-17 coated at 0.07 µg/ml, various netrin-1 concentrations
T3 construct: also called recombinant netrin-1 (Apotech Corp.); not shown: FlagM2 tag
Method: An anti-mouse antibody coupled to HRP (Jackson ImmunoResearch, Inc) was added at a concentration of 0.8 μg/ml for 1 hour at 37° C. Colorimetric intensity was measured at a wavelength of 490 nm using a Victor station (Wallac).

B1: endogenous mouse TrkC (E16.5 embryonic cortex) (receptor)
chain: not shown
notes: whole, on cells
[1]
  binding result: no binding

B2: endogenous mouse bFGF (E16.5 embryonic cortex) (ligand, UniProt P15655 10-154, looked up)
chain: PALPEDGGAAFPPGHFKDPKRLYCKNGGFFLRIHPDGRVDGVREKSDPHVKLQLQAEERGVVSIKGVCANRYLAMKEDGRLLASKCVTEECFFFERLESNNYNTYRSRKYSSWYVALKRTGQYKLGSKTGPGQKAILFLPMSAKS
[2]
  binding result: no binding

B3: endogenous mouse p75^ntr (E16.5 embryonic cortex) (receptor, UniProt Q9Z0W1 32-427, looked up)
chain: KETCSTGMYTHSGECCKACNLGEGVAQPCGANQTVCEPCLDSVTFSDVVSATEPCKPCTECLGLQSMSAPCVEADDAVCRCSYGYYQDEETGRCEACSVCGVGSGLVFSCQDKQNTVCEECPEGTYSDEANHVDPCLPCTVCEDTERQLRECTPWADAECEEIPGRWITRSTPPEGSDVTTPSTQEPEAPPERDLIASTVADTVTTVMGSSQPVVTRGTADNLIPVYCSILAAVVVGLVAYIAFKRWNSCKQNKQGANSRPVNQTPPPEGEKLHSDSGISVDSQSLHDQQTHTQTASGQALKGDGNLYSSLPLTKREEVEKLLNGDTWRHLAGELGYQPEHIDSFTHEACPVRALLASWGAQDSATLDALLAALRRIQRADIVESLCSESTATSPV
notes: whole, on cells; also called P75-NGFR
[1]
  binding result: no binding

B4: Aβ1-17 (the 17 first amino acids of Aβ) (peptide, UniProt P05067 672-688, looked up)
peptide: DAEFRHDSGYEVHHQKL
notes: domain: Aβ1-17
[3]
  Kd: 30 nM
